# Source: the supplement of paper PMC9732359
# ± gives the uncertainty stated by the source.
# Assay: protein stability index of a GFP-peptide fusion (yeast GPS) (PSI 1-4); higher = more stable; sorted into four equal gates, so the index is relative within each strain
# Summary of the method: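 Plasmids isolated from each sorting gate were PCR-amplified and Illumina-sequenced, and barcodes assigned the reads to strains. The gates, four of equal size, were set by GFP/Cherry fluorescence ratio on mid-log cultures in leucine-free medium. These cultures were yeast carrying a pooled library of tiled 17-residue yeast protein peptides fused downstream of GFP on a plasmid that also expresses Cherry. The protein stability index is the sum of every gate's read frequency times its gate number.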
Sequence,protein stability index (doa10∆),protein stability index (pdr5∆),protein stability index (san1∆),protein stability index (ubr1∆)
NRVGLTLDNIDDINKAK [ARP9],3.15 ± 0.056,2.93 ± 0.051,3.22 ± 0.045,2.43 ± 0.034
TNYYLTTARNDLGVVFA [CSL4],2.04 ± 0.066,2.39 ± 0.078,2.51 ± 0.075,2.82 ± 0.072
ISGYKKFSSTSRYMQYN [RPT1],1.26 ± 0.18,1.59 ± 0.15,1.56 ± 0.2,1.7 ± 0.11
LIETVFVKNIRMLSFED [RPN9],2.19 ± 0.044,1.89 ± 0.05,1.78 ± 0.066,1.97 ± 0.041
KRCMDDLNPLKTLNLFK [RPO31],2.98 ± 0.15,2.99 ± 0.074,2.69 ± 0.12,2.92 ± 0.064
NFYLKRFISDLLWLVLI [SWI1],1.8 ± 0.054,1.88 ± 0.065,1.86 ± 0.095,1.59 ± 0.046
HRSGKIVVQLNGRLNKC [RPS22A],–,3.52 ± 0.23,2.98 ± 0.13,3.36 ± 0.13
SNNTAATADTTHLHEAL [NUT1],2.37 ± 0.076,3.07 ± 0.084,3.15 ± 0.11,3.02 ± 0.042
FLPFNNSASNNGNLTSN [SWI1],2.94 ± 0.093,3.02 ± 0.094,3.07 ± 0.058,2.9 ± 0.099
EGLDELPKIIQLQGPQW [SOH1],3.16 ± 0.068,3.35 ± 0.057,3.18 ± 0.043,3.15 ± 0.056
MDSIIPAGVKLDDLQVI [PGD1],2.5 ± 0.093,3.05 ± 0.091,2.57 ± 0.061,2.52 ± 0.056
TNLISKISLLRPSFQNN [SWP82],2.52 ± 0.05,2.69 ± 0.05,2.53 ± 0.071,2.72 ± 0.064
TRELAEEGYSGVEVRVT [RPS3],2.4 ± 0.059,3 ± 0.073,2.67 ± 0.053,2.86 ± 0.04
SAIDVLDPLTKDPVDFV [RPN2],3.21 ± 0.088,3.29 ± 0.076,3.15 ± 0.074,3.12 ± 0.096
IERYPLKVTKKHGAKKV [RPL27A],3.37 ± 0.092,3.6 ± 0.14,3.54 ± 0.087,3.23 ± 0.1
VYTAIYNYCVNKSRSSG [CDC53],2.48 ± 0.074,2.62 ± 0.057,2.61 ± 0.053,2.71 ± 0.043
RGFFDILSLATEGCIGL [MCD1],2.87 ± 0.1,3.03 ± 0.057,2.52 ± 0.092,2.7 ± 0.063
TVAVLPPNWKYESATAS [RPS13],1.63 ± 0.036,2.06 ± 0.037,2.07 ± 0.055,1.97 ± 0.028
AVEQRKKEKLDSGEVDA [DPB4],3.2 ± 0.23,3.21 ± 0.17,3.36 ± 0.1,3.27 ± 0.1
NLLCYYNLRSLNLINAK [RPN3],1.48 ± 0.049,1.71 ± 0.06,1.36 ± 0.12,1.25 ± 0.041
LDTYRERSKQLNEKFQE [SMC2],–,–,3.37 ± 0.12,–

Sequence,protein stability index (doa10∆),protein stability index (pdr5∆),protein stability index (san1∆),protein stability index (ubr1∆)
YEEFRDVAIENNTLSRY [RRP43],3.24 ± 0.042,3.25 ± 0.043,3.178 ± 0.029,3.2 ± 0.035
MKAVGEYMKRHPTTIES [SEC65],1.93 ± 0.17,2.24 ± 0.23,1.64 ± 0.3,–
SCTLLERGHPKDNARIY [POP1],1.87 ± 0.056,2.15 ± 0.064,2.76 ± 0.055,2.99 ± 0.063
HKKDRLQYLPLYAVSTF [SIR4],1.59 ± 0.035,1.66 ± 0.035,1.35 ± 0.054,1.89 ± 0.037
DQSNVQYYLSVLNQQLP [BRR2],2.96 ± 0.082,3.03 ± 0.072,3.02 ± 0.06,3.03 ± 0.06
YIKYNILLTSISRERDL [SRP68],1.69 ± 0.07,1.58 ± 0.062,1.83 ± 0.12,1.91 ± 0.094
EVQCTSTPYLEILVEES [PCI8],2.3 ± 0.067,2.96 ± 0.18,2.33 ± 0.14,2.64 ± 0.083
LTKKKNEEINKKSLEED [SEM1],–,3.31 ± 0.11,2.77 ± 0.18,–
PFTDRSVVRGNTFKVLS [COB],2.25 ± 0.082,2.56 ± 0.18,2.52 ± 0.091,2.37 ± 0.12
KNNNNANNNGSNLQRAQ [GAL11],3.38 ± 0.13,–,3.28 ± 0.14,3.02 ± 0.11
LAMEAILNELEVFIGRV [YJR042W/NUP85],2.59 ± 0.12,2.93 ± 0.14,2.76 ± 0.15,2.51 ± 0.06
YGPPGTGKTLLARACAA [RPT5],2.5 ± 0.13,2.53 ± 0.081,2.29 ± 0.18,–
NKVCRIEAASTTQDQCK [RPB8],2.66 ± 0.056,2.89 ± 0.07,2.63 ± 0.075,2.93 ± 0.063
TLVHTRVKIANTSAATV [SSN2],2.35 ± 0.056,2.31 ± 0.046,2.32 ± 0.044,2.57 ± 0.035
RRISSMPGGYFHSEISP [YAR002W/NUP60],2.27 ± 0.14,1.89 ± 0.11,2.96 ± 0.094,3.17 ± 0.14
ETIKMKELDQELIIDPL [BRN1],2.98 ± 0.12,3.04 ± 0.15,2.6 ± 0.26,3.01 ± 0.064
IFIATQLEKKIRFVCLS [BRR2],2.17 ± 0.2,1.86 ± 0.11,–,1.49 ± 0.074
ASDESLLRYGGAFTIAL [RPN2],3.39 ± 0.099,3.35 ± 0.13,3.25 ± 0.098,3.34 ± 0.083
TGEAQVDNSPTTESNSR [YLR335W/NUP2],2.98 ± 0.086,2.83 ± 0.09,2.59 ± 0.13,3.06 ± 0.092
LPIYDSLMSSQNKLFYI [SIR3],2.15 ± 0.14,2.01 ± 0.14,–,1.38 ± 0.093
AASFKKLYKTPIPIPAF [PRE10],2.54 ± 0.14,3.15 ± 0.12,2.75 ± 0.079,3 ± 0.12

Sequence,protein stability index (doa10∆),protein stability index (pdr5∆),protein stability index (san1∆),protein stability index (ubr1∆)
KIREDHINKIPSNSTTT [SRB8],2.63 ± 0.051,2.71 ± 0.044,2.54 ± 0.056,2.81 ± 0.034
DASPDSLEALIDLCHDF [YCS4],2.81 ± 0.055,2.9 ± 0.047,2.86 ± 0.054,2.86 ± 0.041
EGWFYKRAASVARHIYM [RPS19A],1.97 ± 0.16,2.51 ± 0.22,1.99 ± 0.14,2.33 ± 0.17
LVSSGDRFIELISDQLL [YML103C/NUP188],2.76 ± 0.099,2.5 ± 0.079,2.42 ± 0.057,3 ± 0.06
GNLSKREIQIDAVLKIF [SRB8],2.75 ± 0.065,2.83 ± 0.063,2.99 ± 0.063,2.68 ± 0.049
RELEQIKPKIALQDKEI [SNF12],3.15 ± 0.18,3.35 ± 0.17,–,3.05 ± 0.13
SNVLDGNKNQFEPSISR [LRP1],3 ± 0.086,2.95 ± 0.074,3.12 ± 0.046,3.36 ± 0.091
LFRAIYLYCLDNNITEM [YCG1],2.08 ± 0.052,2.09 ± 0.044,2.1 ± 0.061,2.38 ± 0.05
KQQEQLEQQKQPTGLLK [YMR153W/NUP53],3.35 ± 0.13,3.12 ± 0.14,2.97 ± 0.069,3.15 ± 0.065
IIKDYVLDIVPGSSITE [SRB4],–,2.58 ± 0.19,–,3.2 ± 0.19
LREAPADYWTHAYRDVL [SNF6],2.55 ± 0.12,2.7 ± 0.1,3.42 ± 0.17,2.38 ± 0.061
FESLYNSNDSVFVGSGK [BRR2],3.24 ± 0.098,3.18 ± 0.11,2.97 ± 0.13,3.15 ± 0.11
VENLTVAQECIAFLKKQ [SMC1],2.12 ± 0.065,2.47 ± 0.07,2.42 ± 0.086,1.98 ± 0.051
QFEIPISDDDDSALRYS [POP4],2.98 ± 0.071,2.75 ± 0.096,2.54 ± 0.049,3.16 ± 0.038
ILSQQFDKIIKIREDHI [SRB8],2.62 ± 0.066,3.05 ± 0.07,3.04 ± 0.052,2.84 ± 0.054
AGGGESDSALILMYKGF [UBP6],3.29 ± 0.091,3.45 ± 0.08,3.26 ± 0.12,3.35 ± 0.063
TVYISSIALLKMLKHGR [RPN11],2.25 ± 0.085,2.09 ± 0.079,2.65 ± 0.054,2.79 ± 0.066
HGSISPQEESVSPNISS [SIR3],2.82 ± 0.075,3.06 ± 0.07,2.98 ± 0.046,3.01 ± 0.034
RALRIETGNFSWASEGI [RPS8A],3.15 ± 0.036,3.15 ± 0.037,3.11 ± 0.027,3.052 ± 0.026
YGNRAEQFLETDSDFAK [SRP68],3.15 ± 0.12,2.99 ± 0.08,3.26 ± 0.083,3.23 ± 0.065
